Source: patent publication US20120058906A1 (published 2012)

Tests used:
[1] = target: T1, rHuman HGF R/c-MET/Fc Chimera, CF (R&D Systems Cat#358-MT/CF) (human, UniProt P08581 25-932); test: ECL (MSD multi-spot), antigen spotted on plate; Fab 11 nM; blank spot 212
T1 construct: Bought reagent; also called HGF R/Fc; hepatocyte growth factor receptor; Fc part of the bought chimera not given

[2] = target: T2, rHuman EGF R/Fc Chimera, CF (R&D Systems Cat#344-ER) (human, UniProt P00533 25-645); test: as above
T2 construct: Bought reagent; also called epidermal growth factor receptor; Fc part of the bought chimera not given

[3] = target: T3, rHuman P-Cadherin/Fc Chimera, CF (R&D Systems Cat#861-PC) (human, UniProt P22223 108-654); test: as above
T3 construct: Bought reagent; also called CDH3; Fc part of the bought chimera not given

[4] = target: T4, Recombinant Human DLL4 (R&D Systems Cat#1506-D4/CF) (human, UniProt Q9NR61 27-524); test: MSD ECL titration, Fab 9.3 nM, blank 287
T4 construct: Bought recombinant protein; also called rHuman DLL4; delta-like protein 4

[5] = target: T5, rHuman CD44/Fc Chimera, CF (R&D Systems Cat#3660-CD) (human, UniProt P16070 21-220); test: MSD ECL titration, Fab 9.3 nM, blank 287
T5 construct: Bought Fc chimera; Fc part of the bought chimera not given

[6] = target: T6, rHuman P-Cadherin/Fc Chimera, CF (R&D Systems Cat#861-PC) (human, UniProt P22223 108-654); test: MSD ECL titration, Fab 9.3 nM, blank 287
T6 construct: Bought Fc chimera; Fc part of the bought chimera not given

[7] = target: T7, rHuman HGF R/c-MET/Fc Chimera, CF (R&D Systems Cat#358-MT/CF) (human, UniProt P08581 25-932); test: MSD ECL titration, Fab 9.3 nM, blank 287
T7 construct: Bought Fc chimera; also called HGF R/Fc; Fc part of the bought chimera not given

[8] = target: T8, rHuman Erythropoietin R/Fc Chimera, CF (R&D Systems Cat#963-ER) (human, UniProt P19235 25-250); test: MSD ECL titration, Fab 9.3 nM, blank 287
T8 construct: Bought Fc chimera; also called EPO R/Fc; EPOR; Fc part of the bought chimera not given
T8 sequence: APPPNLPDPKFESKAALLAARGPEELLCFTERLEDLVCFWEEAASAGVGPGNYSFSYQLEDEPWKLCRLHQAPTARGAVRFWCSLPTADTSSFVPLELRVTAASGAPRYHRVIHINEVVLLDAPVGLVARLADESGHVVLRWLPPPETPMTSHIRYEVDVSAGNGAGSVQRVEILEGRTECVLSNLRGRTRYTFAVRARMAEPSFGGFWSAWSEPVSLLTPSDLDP

[9] = target: T9, rHuman Notch-1/Fc Chimera, CF (R&D Systems Cat#3647-TK) (human, UniProt P46531 19-526); test: MSD ECL titration, Fab 9.3 nM, blank 287
T9 construct: Bought Fc chimera; Fc part of the bought chimera not given

[10] = target: T10, rHuman ErbB2/Fc Chimera, CF (R&D Systems Cat#1129-ER) (human, UniProt P04626 23-652); test: MSD ECL titration, Fab 9.3 nM, blank 287
T10 construct: Bought Fc chimera; also called HER2/neu; Fc part of the bought chimera not given

[11] = target: T11, rHuman IGF-1 sR (insulin-like growth factor-1 soluble receptor), CF (R&D Systems Cat#391-GR) (human, UniProt P08069 31-932); test: MSD ECL titration, Fab 9.3 nM, blank 287
T11 construct: Bought soluble receptor; also called IGF-R1

[12] = target: T12, rHuman EGF R/Fc Chimera, CF (R&D Systems Cat#344-ER) (human, UniProt P00533 25-645); test: MSD ECL titration, Fab 9.3 nM, blank 287
T12 construct: Bought Fc chimera; Fc part of the bought chimera not given

[13] = target: T13, rHuman P-Cadherin/Fc Chimera, CF (R&D Systems Cat#861-PC) (human, UniProt P22223 108-654); test: ECL (MSD multi-spot), antigen on plate, Fab 10 nM
T13 construct: Bought Fc chimera; also called CDH3; not shown: Fc of the bought chimera

[14] = target: T14, rHuman IGF-1 sR (insulin-like growth factor-1 soluble receptor), CF (R&D Systems Cat#391-GR) (human, UniProt P08069 31-932); test: ECL (MSD multi-spot), antigen on plate, Fab 10 nM
T14 construct: Bought soluble receptor; also called IGF-R1

[15] = target: T15, rHuman Notch-1/Fc Chimera, CF (R&D Systems Cat#3647-TK) (human, UniProt P46531 19-526); test: ECL (MSD multi-spot), antigen on plate, Fab 10 nM
T15 construct: Bought Fc chimera; not shown: Fc of the bought chimera

[16] = target: T16, rHuman EGF R/Fc Chimera, CF (R&D Systems Cat#344-ER) (human, UniProt P00533 25-645); test: ECL (MSD multi-spot), antigen on plate, Fab 10 nM
T16 construct: Bought Fc chimera; also called ErbB-1; not shown: Fc of the bought chimera

[17] = target: T17, rHuman Erythropoietin R/Fc Chimera, CF (R&D Systems Cat#963-ER) (human, UniProt P19235 25-250); test: ECL (MSD multi-spot), antigen on plate, Fab 10 nM
T17 construct: Bought Fc chimera; also called EPO R/Fc; Epo R; not shown: Fc of the bought chimera
T17 sequence: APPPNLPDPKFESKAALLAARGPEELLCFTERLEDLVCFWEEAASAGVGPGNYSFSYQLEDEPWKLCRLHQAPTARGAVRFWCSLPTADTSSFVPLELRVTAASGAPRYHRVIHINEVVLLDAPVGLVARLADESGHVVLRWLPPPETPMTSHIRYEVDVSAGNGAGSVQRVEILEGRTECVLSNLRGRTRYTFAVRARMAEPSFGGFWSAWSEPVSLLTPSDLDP

[18] = target: T18, rHuman CD44/Fc Chimera, CF (R&D Systems Cat#3660-CD) (human, UniProt P16070 21-220); test: ECL (MSD multi-spot), antigen on plate, Fab 10 nM
T18 construct: Bought Fc chimera; not shown: Fc of the bought chimera

[19] = target: T19, Recombinant Human DLL4 (R&D Systems Cat#1506-D4/CF) (human, UniProt Q9NR61 27-524); test: ECL (MSD multi-spot), antigen on plate, Fab 10 nM
T19 construct: Bought recombinant protein; also called delta-like protein 4
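Note: blank spot per well as comparator with Hit at signal to blank ratio of 4 or more.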

B1: Fab VH1-46_IGHD3-10*01_IGHJ4*01 & B3_IGKJ1*01 (Fab, V domains shown)
VH: QVQLVQSGAEVKKPGASVKVSCKASGYTFTSYYMHWVRQAPGQGLEWMGIINPSGGSTSYAQKFQGRVTMTRDTSTSTVYMELSSLRSEDTAVYYCAREYYYGSGSYYNDYFDYWGQGTLVTVSS
VL: not shown
notes: also called IGHV1-46*01
B1 showed an ECL signal [1] of 268, an ECL signal [2] of 201 and an ECL signal [3] of 270.

B2: Fab VH1-46_IGHD6-6*01_IGHJ1*01 & L6_IGKJ1*01 (Fab, V domains shown)
VH: QVQLVQSGAEVKKPGASVKVSCKASGYTFTSYYMHWVRQAPGQGLEWMGIINPSGGSTSYAQKFQGRVTMTRDTSTSTVYMELSSLRSEDTAVYYCAREEYSSSSAEYFQHWGQGTLVTVSS
VL: not shown
notes: Expressed in E. coli as Fab: heavy chain with CH1 plus Flag and His tags from Plasmid A, kappa light chain constant region from Plasmid C; also called Fab No. 1
B2 gave an ECL signal [4] of 13200, an ECL signal [5] of 396 and an ECL signal [6] of 452. The ECL signal [7] was 324, the ECL signal [8] was 306 and the ECL signal [9] was 492. For the same binder, the ECL signal [10] was 354, the ECL signal [11] was 315 and the ECL signal [12] was 424.

B3: Fab VH1-46_IGHD6-6*01_IGHJ1*01_S102A_S103P_S104F & L6_IGKJ1*01_S31K (Fab, V domains shown)
VH: QVQLVQSGAEVKKPGASVKVSCKASGYTFTSYYMHWVRQAPGQGLEWMGIINPSGGSTSYAQKFQGRVTMTRDTSTSTVYMELSSLRSEDTAVYYCAREEYAPFSAEYFQHWGQGTLVTVSS
VL: EIVLTQSPATLSLSPGERATLSCRASQSVSKYLAWYQQKPGQAPRLLIYDASNRATGIPARFSGSGSGTDFTLTISSLEPEDFAVYYCQQRSNWPPWTFGQGTKVEIKR
notes: Fab
B3 showed an ECL signal [13] of 240 ECL signal, an ECL signal [14] of 214 ECL signal and an ECL signal [15] of 388 ECL signal. The ECL signal [16] was 297 ECL signal, the ECL signal [17] was 392 ECL signal and the ECL signal [18] was 352 ECL signal. It also gave an ECL signal [19] of 29800 ECL signal.
